Measured values: the nanobody polyreactivity screen of Harvey et al. (2022)

Assay: yeast display, Sf9 membrane polyspecificity reagent, FACS + sequencing; frameworks hold sequencing errors
Summary of the method: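 In a synthetic yeast display library (Saccharomyces cerevisiae BJ5465), nanobody expression was induced with galactose for 36–48 hours. FACS gates were set low and high (top ~1%) using anti-HA fluorescence for expression and streptavidin fluorescence for binding of the Sf9 membrane reagent. Each polyreactivity label is drawn from the gate of origin.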

| Sequence | polyreactivity (PSR sort gate) |
| --- | --- |
| QVQLVESGGGLVQAGGSLRLSCAASGFTIDLYAMGWYRQAPGKERELVAAISIRGGSTYYADSVKGRFTISRDNAKNTVYLQMNSLKPEDTAVYYCATVTSRRSYIAYRGTGDYDYWGQGTQVTVSS | low polyreactivity |
| QVQLVESGGGLVQAGGSLRLSCAASGRIFLDYAMGWYRQAPGKERELVAAIRYSGVGTYYADSVKGRFTISRDNAKNTVYLQMNSLKPEDTAVYYCNAVTKVGYLRRRDYWGQGTQVTVSS | high polyreactivity |
| QVQLVESGGGLVQAGGSLRLSCAASGFTFYRYTMGWYRQAPGKERELVAAISRGGRTYYADSVKGRFTISRDNAKNTVYLQMNSLKPEDTAVYYCNARYPSADDWGQGTQVTVSS | high polyreactivity |
| QVQLVESGGGLVQAGGSLRLSCAASGSIFYTYAMGWYRQAPGKERELVAAISRSGGSTYYADSVKGRFTISRDNAKNTVYLQMNSLKPEDTAVYYCAAVSYRGRGYWGQGTQVTVSS | high polyreactivity |
| QVQLVESGGGLVQAGGSLRLSCSASGRTFATNAMGWYRQAPGKERELVAAISGSGGRTYYADSVKGRFTISRDIAKNTVYLQMNSLKPEDTAVYYCAAQKVPYRATNYYYWGQGTQVTVSS | high polyreactivity |
| QVQLVESGGGLVQAGGSLRLSCAASGRTFYRYAMGWYRQAPGKERELVAAISSGGSTYYADSVKGRFTISRDNAKNTVYLQMNSLKPEDTAVYYCNADYGRRNHMDYWGQGTQVTVSS | low polyreactivity |
| QVQLVESGGGLVQAGGSLRLSCAASGFIFWRYAMGWYRQAPGKERELVASITSTGGSTYYADSVKGRFTISRDNAKNTVYLQMNSLKPEDTAVYYCAADTFVWADWSWHYYWGQGTQVTVSS | high polyreactivity |
| QVQLVESGGGLVQAGGSLRLSCAASGSTFWKYAMGWYRQAPGKERELVASIRSGGSTYYADSVKGRFTISRDNAKNTVYLQMNSLKPEDTAVYYCAAVTHGRYDWGQGTQVTVSS | high polyreactivity |
| QVQLVESGGGLVQAGGSLRLSCAASGSTFVYYAMGWYRQAPGKERELVAVISDDGGTYYADSVKGRFSISRDNAKNTVYLQMNSLKPEDTAVYYCAKDYYGGAYYWYNDRSGDYWGQGTQVTVSS | low polyreactivity |
| QVQLQESGGGLVQAGGSLRLSCAASGTITVLYKMGWFRQAPGKEREFVASINYGTSTYYADSVKGRFTVSRDSAKNTVYLQMNSLKPEDTAVYFCSAAFRWQDVYRYWGQGTQVTVSS | low polyreactivity |
| QVQLVESGGLLVQAGGSLRLSCAASGSNSYRYDIVWYRQPPGKERELVATIRSGGSTNYADSVKGRFTISRDNAKNTVYLQMNSLKPEDTAVYYCASRLYARKKLHFSADSDYWGQGTQVSVSS | low polyreactivity |
| QVQLVESGGGLVQAGGSLRLSCAASGSIFYDNDMGWYRQAPGNERELVAAISWSASDTYYADSVKGRFTISRDNAKNTVYLQMNSLKPDDTAVYYCNAEVYEWYVVYSALDYWGQGTQVTVSS | low polyreactivity |
| QVQLVESGGGLVQAGGSLRLSCAASGRTFVRYAMGWYRQAPGKERELVAAISWSGGSTYYADSVKGRFTISRDNAKNTVYLQMNSLKPEDTAVYYCATLSAWKASSYDYWGQGTQVTVSS | high polyreactivity |
| QVQLVESGGGLVQAGGSLRLSCAASGSIFYRYAMGWYRQAPGKERELVAAISSRGGSTNYADSVKGRFTISRDNAKNTVYLQMNSLKPEDTAVYYCAAGWNYLRQFNFNYWGQGTQVTVSS | high polyreactivity |
| QVQHVESGGGLVQAGGSLRLSCAASGGTFYGYAMGCYRQAPGKERELVAVITYSGGSTYYADSVKGRFTISRDNAKNTVYLQMYSLKPEDTAVYYCAADVKYGYDWGQGTQVTVSS | high polyreactivity |
| QVQLVESGGGLVQAGGSLRLSCAASGSIFTVYAMGWYRQAPGKERELVAAISRRGGSTYYADSVKGRFTISRDNAKNTVYLQMNSLKPEDTAVYYCAALERTLDNKYQFGYWGQGTEVTVSS | high polyreactivity |
| QVQLVESGGGLVQAGGSLRLSCAASGSIFAYYTMGWYRQAPGNERELVAALSRSGGSTNYADSVKGRFTISRDNAKNTVYLQMISLKPEDTAVYYCAVRRYSRRLFGYYYWGQGTQVTVSS | high polyreactivity |
| QDQLVESGGGLVQAGGSLRLSCAASGFIFFGYAMGWYRQAPGKERELVAAITSGGSTYYADSVKGRFTISRDNAKNTVYLQMNSLKPEDTAVYYCAAVLWYGSKRYGYWGQGTQVTVSS | high polyreactivity |
| QVQLVESGGGLVQAGGSLRLSCAASGNIFYYYAMGWYRQAPGKERELVADITSGGDTDYADSVKGRFTISRDNAKNTVYLQMNSLKPEDTAVYYCNAEYYFHVTYDYWGQGTQVTVSS | low polyreactivity |
| QVHLVESGGGLVQAGGSLRLSCSASGSILKYYAMGWYRQAPGKERELVAAISRSGGSTYYADSVKGRFTISRDNAKNTVYLHMNSLKPEDTAVYYCAAYYNFPYHGSDYWGQGTEVTVSS | high polyreactivity |
| QVQLVESGGGLLQAGGSLRLSCAATGITYDYYDMGWYRQAPGKERELVAAIRWSGTSKYYADSVKGRFTISRDNANNTVYIQMNSLKTEDSAVYYCAALAVGNDYRRYGYWGQGTQVTVSS | high polyreactivity |
| QVQLVESGGGLVQAGGSLRLSCASSGSIFFANAIGWYRQAPGKERELVATISWRGGSTYYAYSVKGRFTISRDIAKNSVYLQKNSLKPEDTAVYYCAAGYYPYWGQGTQLTVSS | low polyreactivity |

| Sequence | polyreactivity (PSR sort gate) |
| --- | --- |
| QVQLVESGGGLVQAGGSLRLSCAASGLTFIVYAMGWYRPAPGKERELVADITWSGGSTYYADSLKGRFTISRDNAKNTVYLQMNSLKPEATAVYYCNRQSAKIMDYWGQGTQVTVSS | low polyreactivity |
| QVQLVESGGGLVQAGGSLRLSCAASGSIIQGYAMGWYRQEPGKERELVAAITGDGTTNYADSVKGRFTISRDNAKNNVYLQMNSLKPEDTAVYYCSATGLFNKFHGYGYLGQGTQVTVSS | low polyreactivity |
| QVQLVESGGGLVQAGGSLRLSCAASGSILAYYAMGWYRQAPGKERELVADITSSGGITYYADSVKGRFTISRDNAKNTVYLQMNSLKPEDTAVYYCNADSWAIGGGSYPYDYWGQGTQVTVSS | low polyreactivity |
| QVQLVESGGGLVQAGGSLRLSCAASGITFPRYAMGWYRQAPGKERELVATITSRGGSTYYADSVKGRFTISRDNAKNTVYLQMNSLKPEDTAVYYCNAQYLLFHGYRYDYWGQCTQVTVSS | high polyreactivity |
| QVQLVESGGGLFQAGGSLRLICAASGFIFGGSDMGWYRQAPGKERELVAAISRSGGSTYYADYVKGRFTISRDNAKNTVYLQMNSMKREDTAVYYCNSVPRRQGFNYLGQGTQVTVSS | high polyreactivity |
| QVQLVESGGGLVQAGGSLRLSCAASGFTFKGNAMGWYRQAPGKERELVATITQSAGSTYYADSVKGRFTISRDNAKNTVYLQMNSLKPEDTAVYYCAAYLSETRPYLYDYWGQGTQVTVSS | low polyreactivity |
| QVQLQDSGGGLVQAGGSLRLICAASVTIFSYSDLGWYRQAPGKERKFVAGIGFGSNSNFADSVRGRFTISRDNAKNTVYLQMNSLKPEDTAVYYCAAVWFDYSTHRYWGQGTKVTVSS | high polyreactivity |
| QDKLVESGGGLVKAGGSLRLSCAASGSIFATYAMVWYRQAPGKERELVAAISKSTDSTYYADSVKGRFTISRDNAKNNVYLQMNSQKPEDTAVYYCAAVQRYKGLQDDSWGQGTQVTVSS | high polyreactivity |
| QVQLVESGGGLVQAGGSLRLSCAASGRTFHRYAMGWYRQAPGKERELVATISRGGSTNYADSVKGRFTISRDNAKNTVYLQMHSLKPEDTAVYYCAAESWIYWYPDTGDYWGQGTQVTLSS | high polyreactivity |
| QVQLVESGGGLVQAGGSLRLSCAASGRIFIEYAMGWYRQAPGKERELVATINSSGGRTYYADSVKGRFTISRDNAKNTVYLQMHSLKPEDTAVYYCNADVGLLYTETYEYDYWGQGTQVTVSS | low polyreactivity |
| QVQLVESGGGLVQAGGSLRLSCAASGRTFYGNVMGWYRQAPGKERELVATISYSAGSTYYADSVKGRFTISRDNAKNTVYFQMNSLKPEDTAVYYCAAAGYVYHWAPRGSRYYYWGQGTQVTVSS | low polyreactivity |
| QVQLVESGGGLVQAGGSLRLSCAASGRIFYGNAMGWYRQAPGKERELVAAISKRGGSTHYADSVKGRFTISRDNAKNPVYLQMNSLKPEDTAVDYCATDSYYVGAVHYYYWGQGTQVTVSS | high polyreactivity |
| QVQLVESGGGLVQAGGSLRLSCAASGRIFSAYAMGWYRPAPGKERELVAAISKRGGRTYYADSVKGRFTISRDNAKNTVYLQMNSLKPEDTAVYYCNKRYHDGHELDYWGQGTQVTVSS | high polyreactivity |
| QVQLVESGGGLVQAGGSLRLSCAASGSTFGYNAMGWYRQAPGKERELVAAISYSGGSTSYADSVKGRFTISRDNAKNIVYLQMNSLKPEDTAVYYCARDSYSQYSSQALEGYGYWGQGTQVTVSS | low polyreactivity |
| QVQLVEPGGGLVQAGGSLRLSCAASGSIFAYYVMGWYRQAPGKERELVAGISFSGGTTYYADSVNGRFTISRDNAKNTVYLQMNSLKPEDTAVYYCNADPDHREFDYWGQGTQVTVSS | low polyreactivity |
| QVQLVESGGGLVQAGGSLRLSCAASGSILRRNAMGWYRPAPGKERELFAGISRGGNTNYADSVNGRFTISRDNAKNTVYLQMNSLKPEDTAVYYCDTDGYGRWGRLTFTYWGQGTQVTVSS | low polyreactivity |
| QVQLVESGGGLVQAGRSLRLSCAASGRTSAYYAMGWYRQPPGKERELVAGITRGGRTNYADSVKGRFTISRDNAKNTVYLQLNSLKPEDTAVYYCAAKYVYYLNSRTSGYWGQGSQVTVSS | high polyreactivity |
| QVQLVESGGGLVQAGGSLRLSCAASGSTSWIYAMGWYRQAPGKERELVAAISGRDGSTNYADSVKGRFTISRDNAKNTVYLQMNSLKPEDTAVYYCNATGRRFNRYGGDYWGQGTQVTVSS | high polyreactivity |
| QVQLVESGGGLVQAGGRLSLSCAASGITFLGYAMGWYREAPGKDSELVAAISSGGSTYYADSVKGRFTISRDNAKNTVYLQMNILKPEDTAVYYCAKAVYYRDPYGGDYWGQGTQVTVSS | low polyreactivity |
| QVQLVESGGGLVQAGGSLRLSCAASGSIFYYNAMGWYSQAPGKERELVAAITGSGGSTYYADSVKGRFTISRDNAKNTVYLQMNSLKPEDTAVYYCAADYSLYGWWFRNDYWGQGTQVTVSS | low polyreactivity |
| QVQLVESGGGLVQAGGSLRLSCAASGRTFVYYAMGWYRQAPGKEREFVATITSSGGSTYYADSVKGRFTISRDNAKNTVYLQMNSLKPEDTAVYYCNADSVSSPPYYDYWGQGTQVTVSS | high polyreactivity |
